According to patent publication US20070100561A1, “Crystals of DPP-IV” (priority 2002, published 2007):

Experiments:
[1] = molecular target: DPP-IV as immobilized on the CM5 Biacore sensor (human) (UniProt P27487); assay: SPR (Biacore), DPP-IV immobilized on CM5, Diprotin A in Hepes running buffer
[2] = molecular target: soluble extracellular domain of human dipeptidyl peptidase IV (sDPP-IV; residues 31-766), glycosylated (human) (UniProt P27487); assay: enzyme inhibition, fluorogenic substrate Ala-Pro-7-amido-4-trifluoromethylcoumarin, assay buffer, 25° C., glycosylated sDPP-IV
Sequence of soluble extracellular domain of human dipeptidyl peptidase IV (sDPP-IV; residues 31-766), glycosylated (human) (P27487 31-766 limits assumed): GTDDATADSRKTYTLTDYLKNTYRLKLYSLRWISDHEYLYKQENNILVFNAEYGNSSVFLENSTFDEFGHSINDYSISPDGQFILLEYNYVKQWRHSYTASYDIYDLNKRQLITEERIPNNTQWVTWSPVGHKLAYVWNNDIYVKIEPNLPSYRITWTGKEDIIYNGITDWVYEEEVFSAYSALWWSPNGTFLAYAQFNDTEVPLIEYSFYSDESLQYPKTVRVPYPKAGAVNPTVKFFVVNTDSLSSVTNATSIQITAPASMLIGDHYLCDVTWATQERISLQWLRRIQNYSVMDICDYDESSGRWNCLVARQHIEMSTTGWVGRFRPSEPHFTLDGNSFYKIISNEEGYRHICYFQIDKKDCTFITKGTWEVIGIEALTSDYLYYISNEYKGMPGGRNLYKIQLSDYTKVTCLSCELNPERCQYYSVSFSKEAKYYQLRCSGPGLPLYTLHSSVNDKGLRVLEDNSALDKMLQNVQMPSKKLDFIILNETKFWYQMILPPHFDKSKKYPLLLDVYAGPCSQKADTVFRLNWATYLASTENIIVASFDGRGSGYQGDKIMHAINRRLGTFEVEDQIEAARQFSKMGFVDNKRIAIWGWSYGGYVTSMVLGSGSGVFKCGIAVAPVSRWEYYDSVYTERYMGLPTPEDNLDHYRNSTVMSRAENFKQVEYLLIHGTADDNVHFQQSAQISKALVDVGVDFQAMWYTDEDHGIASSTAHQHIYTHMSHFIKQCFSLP

Sequence of DPP-IV as immobilized on the CM5 Biacore sensor (human) (P27487 31-766 limits assumed): as above

Diprotin A (Ile-Pro-Ile) (peptide)
Kd [1]: 3.8 µM
Ki [2]: 4.63 µM
